In the supplement of paper PMC12783771 one finds sfGFP reporter fluorescence data, which are given here for 7 variants.

B1: library; numbered along this chain (parent)
chain: MNIQIGELAKRTACPVVTIRFYEQEGLLPPPGRSRGNFRLYGEEHVERLQFIRHCRSLDMPLSDVRTLLSYRKRPDQDCGEVNMLLDEHIRQVESRIGALLELKHHLVELREACSGARPAQSCGILQGLSDCVCDTRGTTAHPSD

± gives the standard deviation of the averaged measurements.

Variants of B1 are the subject of series [1]. The series is described as follows: sfGFP reporter fluorescence (15 h) (µM FITC); higher = higher leak. The settings on record: library round: Round 0; ligand: none. An outline of the steps: (§1)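 With 1 µM lead chloride, 30 µM zinc acetate or no metal present, 1 μL Echo-assembled reactions were incubated 15 hr at 30 °C. They contained BL21 Star (DE3) PANOx-SP extract, 30 μg/mL GamS, the pPbrR-sfGFP reporter plasmid and PCR-made linear PbrR templates Echo-normalized to 5 nM. Endpoint sfGFP fluorescence was read on a Synergy Neo2 at 485/528 nm against FITC standards in 50 mM sodium borate pH 8.5. Results are expressed as µM FITC.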

Series [2] covers variants of B1. Kind of series: sfGFP reporter fluorescence (15 h) (µM FITC); higher = stronger transcriptional activation. The settings on record: library round: Round 0. The essentials:
as §1

Consider MNIQIGELAKRTACGVVTIRFYEQEGLLPPPGRSRGNFRLYGEEHVERLQFIRHCRSLDMPLSDVRTLLSYRKRPDQDCGEVNMLLDEHIRQVESRIGALLELKHHLVELREACSGARPAQSCGILQGLSDCVCDTRGTTAHPSD, for which the sfGFP reporter fluorescence amounted to 0.0643 ± 0.0018 in series [1], 0.085 ± 0.0047 in series [2] (ligand: 1 µM Pb) and 0.447 ± 0.028 in series [2] (ligand: 30 µM Zn).
On to MNIQIGELAKRTACPVVTIRFYEQEGLCPPPGRSRGNFRLYGEEHVERLQFIRHCRSLDMPLSDVRTLLSYRKRPDQDCGEVNMLLDEHIRQVESRIGALLELKHHLVELREACSGARPAQSCGILQGLSDCVCDTRGTTAHPSD, for which the sfGFP reporter fluorescence worked out at 0.06304 ± 0.00052 in series [1], 0.06487 ± 0.00052 in series [2] (ligand: 1 µM Pb) and 0.14 ± 0.0052 in series [2] (ligand: 30 µM Zn).
Regarding MNIQIGELAKRTACPVVTIRFYEQEGLLPPPGRSRLNFRLYGEEHVERLQFIRHCRSLDMPLSDVRTLLSYRKRPDQDCGEVNMLLDEHIRQVESRIGALLELKHHLVELREACSGARPAQSCGILQGLSDCVCDTRGTTAHPSD, the values for the sfGFP reporter fluorescence in series [1], in series [2] (ligand: 1 µM Pb) and in series [2] (ligand: 30 µM Zn) were 0.0588 ± 0.00078, 0.0621 ± 0.00078 and 0.114 ± 0.011, respectively.
In the case of MNIQIGELAKRTACPVVTIRFYEQEGLLPPPGRSRGNFRLYGEEHVERLQFIRHCRSLDMPLSDVRTLLSYRKRPDQDCGEVNMLLDEHIRQVESRIGALLELKHHLVELREACSGARPAQSCGNLQGLSDCVCDTRGTTAHPSD, the sfGFP reporter fluorescence in series [1] amounted to 0.0581 ± 0.00078; in series [2] (ligand: 1 µM Pb), 0.0581 ± 0.00078; in series [2] (ligand: 30 µM Zn), 0.055 ± 0.0015.
MNIQIGELAKRTACPVVTIRFYEQEGLLPPPGRSRGNFRLYGEEHVERLQFIRHCRSLDMNLSKVRTLLSYRKRPDQDCGEVNMLLDEHIRQVESRIGALLELKHHCVELREACSGARPAQSCGILQMLSDCVCDTRGTTAHPSD: the sfGFP reporter fluorescence in series [1] was 4.78 ± 0.1; in series [2] (ligand: 1 µM Pb), 5.3 ± 0.14; in series [2] (ligand: 30 µM Zn) it was 4.84 ± 0.18.
In the same order, the values of MNIQIGELAKRTACPVVTIRFYEQEGLLPPPGRSRGNFRLYGEEHVERLQFIRHCRSLDLPLSKVRTLLSYRKRPDQDCGEVNMLLDEHIRQVESRIGALLELKHHLVELREACSGARPAQSCGILQGLSDCVCDTRGTTAHPSD are 0.916 ± 0.074, 1.99 ± 0.24 and 4.629 ± 0.03.
As to MNIQIGELAKRTACPVVTIRFYEQEGLLPPPGRSRGNFRLYGEEHVERLQFIRHCRSLDMPLSDVRTLLSYRKRPDQDCGEVNMLLDEHIRQVESRIGALLELKHHLVERREACSGARPAQSCGILQGLSDCVCDTRGTTAHPSD, the sfGFP reporter fluorescence was determined as 0.0579 ± 0.0015 in series [1], 0.0596 ± 0.00078 in series [2] (ligand: 1 µM Pb) and 0.06615 ± 0.00026 in series [2] (ligand: 30 µM Zn).
